From patent US20240092935A1 come the findings set out here.

The assay deals with Asialo-BSM (desialylated bovine submaxillary mucin) (bovine). Description: fluorescence binding assay on an Asialo-BSM-coated 96-well plate (0.5 µg/well), biotinylated VVA detected with Alexa Fluor 488 streptavidin, fit with GraphPad Prism.

As usually defined, the Kd is the constant that tells how readily two partners part at equilibrium. A lower Kd goes with a tighter complex. Regarding “Vicia villosa agglutinin (VVA), biotinylated (from UniProt P56625 1-185)”, the Kd worked out at 53.3 nM.
